Measured values from article PMC5014329.

Columns and labels:
[1] = molecular target: M2 (amino acids 42–141) (Streptococcus pyogenes (group A Streptococcus), strain M2 (AP2)); assay: crystal structure
[2] = molecular target: M22 (42–120) (Streptococcus pyogenes (group A Streptococcus), strain M22 (Sir22)); assay: crystal structure

Q: How did the stoichiometry N [1] turn out when “M2 (amino acids 42–141) (domain or fragment)” was run?
A: 2

Q: With M22 (42–120) (domain or fragment) as the substance, how does the stoichiometry N [2] read?
A: 2
